Experimental data from the DeepSol protein solubility set.

Test: soluble on expression in E. coli; label from the status in PepcDB or PDB records

| Sequence | soluble on expression in E. coli |
| --- | --- |
| KTNTATVKVLPISMSDEGDSFLVKDSLGENKIPKNPSKVVILDLGILDTFDALKLNDKVVGVPAKNLPKYLQQFKNKPSVGGVQQVDFEAINALKPDLIIISGRQSKFYDKLKEIAPTLFVGLDNANFLSSFENNVLSVAKLYGLEKEALEKISDIKNEIEKAKSIVDEDKKALIILTNSNKISAFGPQSRFGIIHDVLGINAVDENIKVGTHGKSINSEFILEKNPDYIFVVDRNVILGNKERAQGILDNALVAKTKAAQNKKIIYLDPEYWYLASGNGLESLKTMILEIKNAVK | soluble |
| SNAMKTLFLQYPACSTCQKAKKWLIENNIEYTNRLIVDDNPTVEELKAWIPLSGLPVKKFFNTSGVVYKELKLSSKLPTMTEEEQIALLATNGKLVKRPLVVTERFVLVGFKPEEWEKLK | soluble |
| MGSDKIHHHHHHMNILITGASGFIGRQLVERLAPHHQLTLLTRSVQQTQRILGNQHHYLESLDALSDLNHIDAIVNLAGEPIVAKRWSKNQKQRICDSRWDITARLTQLIQQSSNPPEIMVSGSAVGYYGRHDDKLLDESSGAHVEFSHDICRKWEQEALNANTEHTRVCIIRIGIVLGKGGALEKMLPPFKLGLGGPIGHGRQGMSWIHVQDLISLIDFLLSQEHCKGVFNATAPNPVSNAVFTKALGKALNRPALITTPPLALRLAMGEMSELLTEGQFVYPKRALEAGFQFQFSDLDNALTDVLAK | not soluble |
| MREKIDALTQNLNRTIVGKTEAIRLVLVALIGGGHALLEDVPGVGKTLLAKSLARSLDGTFQRLQCTPDLLPTDITGTNIWNPKSGEFSFMPGPVFANVVLADEINRATPRTQSALLEVMEEQQVTVDGVSRTVPHPFFVIATQNPVEYQGTFPLPEAQMDRFMLSLSLGYPGVDEELEMLQNLQHGIKVGDLQPCLTLAEVAELRDICSQVKVETVLQQYILELVRATRQDEEITLGVSPRGTVALHKATQALAFLLGRDYAIPDDVKFLAPHVLCHRLIPRGGRSARSIVDRLLRSLPIPLEHHHHHH | soluble |
| MSITHLMRQQVEELFKRFLEKTGLSEEATVYAVFIPKEEEVDEESVDVFEQRVNPKDAESVENFVSRLTKVALENDVKELKLYALVLDRDGETLIIAREENPEADEVIKELIERMKEEV | not soluble |
| LDGIAELTGARVEDLAGMDVFQGCPAEGLVSLAASVQPLRAAAGQVLLRQGEPAVSFLLISSGSAEVSHVGDDGVAIIARALPGMIVGEIALLRDSPRSATVTTIEPLTGWTGGRGAFATMVHIPGVGERLLRTARQRLAAFVSPIPVRLADGTQLMLRPVLPGDRERTVHGHIQFSGETLYRRFMSARVPSPALMHYLSEVDYVDHFVWVVTDGSDPVADARFVRDETDPTVAEIAFTVADAYQGRGIGSFLIGALSVAARVDGVERFAARMLSDNVPMRTIMDRYGAVWQREDVGVITTMIDVPGPGELSLGREMVDQINRVARQVIEAVG | not soluble |
| MLKSASSLVRSFIRPQTFRLCSSSSTTQGSPSVSSDDEPVILENNPYTKEPRKSFLCSTGVELDYKNSRLLQQFVSTFSGRVYDRHITGLCDENKKKLIEAIAKSRRAGFMPIFVKDPKYTRDPKLFDPLKPIRPHSFA | not soluble |
| MGSDKIHHHHHHMLLYIHGFNSSPFSDKAIMTAQYMAQHHPSVLFHQPQLPNTPKAAMALLLEYVEAALKDDEPLTYIGSSLGGYFASYLAEHYGGRAVLVNPAVKPFELFDEFMGPQFNPYTGENYQVLPEHKMEVAEFNTPVIRNPDRFLVLLQSGDEVLDYREALSKYHHCQLRIEAAGDHSFVGYEHYLQTISQFLHLP | not soluble |
| MLGSLAAEKRSVFQTSCCVRYKGCMLGVGPTVWGVVWGLGCTVEARGLRKRFGGRTAVAGVSFSVGDGERACIMGPNGSGKTTLLRMVSGVLRPSGGSVRVCGYDVWGDGWREARGLIGFAPQDPPMARRMTGAEYITVVGGLLGLSPGVARREARRVLEMLGFEDVLGRVVARLSGGQRRALGIALALASNPEVVVLDEPGSGLDVRARESLWASLRKAFKGRTVLFSSHDPQEAEAESDRVLIMHRGRLAAWGKPRELIQRYAPKPRVRVWADRAPDGLEPVHTGPGFSDYLIEAPGDVARIASAYSGAGILVERIEVLKPSLREVFFAVTGEEMD | soluble |
| MNTTVEKQQIITSNTEQWKMYSKLEGKEYQIHISKPKQPAPDSGYPVIYVLDGNAFFQTFHEAVKIQSVRAEKTGVSPAIIVGVGYPIEGAFSGEERCYDFTPSVISKDAPLKPDGKPWPKTGGAHNFFTFIEEELKPQIEKNFEIDKGKQTLFGHSLGGLFALHILFTNLNAFQNYFISSPSIWWNNKSVLEKEENLIIELNNAKFETGVFLTVGSLEREHMVVGANELSERLLQVNHDKLKFKFYEAEGENHASVVPTSLSKGLRFISYV | soluble |
| MSHPWRSRGEKRTIMFGYTPSDTILKYLKDMRDLINRAILNAYSIARSNDDSLPSPITLRRSLKDYYDNNVAYAKHHINPVCRTAIAMLRSYKKNNGRLKVVKAKRLAMRIDSELAKIEDNRLRITIRPNVYEYVDIVDRNKKYSEYSKYPISEVLLTDNRVYITFITGSDDKPVIANNIIGFDLNFKSVDYTVIKDNRIAYVDSIDTYDIAKTQRDYERKRRKIQKHIRNPAKRIRKLKEAKHRQRNIVRDKLQKLTTNIVKNNEDKTFVFEDLTNIKKKGKKHKDHKRDGQSSKRFRTDINRWPYRLFQMFVEYKSKNETLYVDPEGTSSECPVCGGILEHPIWKMSKCDNCGATFDRDRLSSLSIAVRGLHLCGTPFSVSGSASWDSMKDNYLYRLEHHHHHH | soluble |
| VKKNVSGEPYVEGSGSNDVRTGAPIDEIDRILLDQLSRDARTPNNALAALAGIAPSTCLGRVRSLIDRGVIRGFHADIDPATLGRDLQAMIAVRVQANARQHLGQLAEQLATLDEVLNVYFIAGADDYLIHVATASSEELRRFVLDHLSAHPAVASTETILIFEHVRPRHRAPRTEQSSGR | soluble |
| MDAEPSTPKQTEQEPSALSSADQVTNEPMESIIRPSILDSNSKMGNKQEDEDRLKKDSGPSTSNQAEQDPSKSADQFVTLSRPTTLGFSPTFESLQNNQEDTKQSTRLLNEDQDRDTLLKKHVDSLYALSERCIIFAGVLNQFLPTEKRRSKTDFLTENMLAALLSELITQIEVSDLRAKANPAVGKQEGDRCKELVSEKSCIEESLRNFREFAKEDSKTDTSSKLDPPNLNTLLYQLEGIEKIMNSIQTTLEANNFNDSENGSNEVTPNKSQLEGDSLKEVPSEESQIVDSAHDGDSRKEGESEVSEMDNVALDKDLPEETETDKTLVDEIPLEDLDKEPLDENPLEGSPGPAQNMTERNIRKRPNSRHDNVSPSKLQKV | soluble |
| MTTHHIKKSYSPNTKLSDLICENYDLLLVITRFGISLGFGEKSIREVCEDNKVNTNTLMAVINALINRPEHPSETVLSDLSAPSLINYLRKSHNYFLEFRLPLLRQDLLAALSNCPSEVVFVIRQFYDEYVEEVRKHMSYEEKTVFPYVEKLLGGKLDKRSHYRIDIFSKRHDQIELKISELKNLLIKYYPTSSGYELNSVLHDIFSSEDDLSAHNFVEDHLFVPLIRKIEKENGL | not soluble |
| MTEAGASIVVTVKNEGKNLRELLESIEKNDFTNFETVVVDDLSTDDTEDIVKSYRFTVYKRIACSRGEGRNIGVDLSRYGYILFTDGDAKVSEHWISGMVSALAAGNDAVIGNTLYTGKRRYMQERVKIFLEGIEVTAPSVNLAYRKDRFRQLGGFDPKFVTAEDIDLNIRAVKAGFRFATCDSCVVYAKVRENLASFLRQAYWNGYGRYQLEMKHPGITRNTRVRLGHNFFDFLHMVSGAAGYLSARISEGKQGRLEHHHHHH | soluble |
| DATWLPPSRWDDGIPGLMLDYNLNGTVSRNYQGGDSHQFSYNGTVGGNLGPWRLRADYQGSQEQSRYNGEKTTNRNFTWSRFYLFRAIPRWRANLTLGENNINSDIFRSWSYTGASLESDDRMLPPRLRGYAPQITGIAETNARVVVSQQGRVLYDSMVPAGPFSIQDLDSSVRGRLDVEVIEQNGRKKTFQVDTASVPYLTRPGQVRYKLVSGRSRGYGHETEGPVFATGEASWGLSNQWSLYGGAVLAGDYNALAAGAGWDLGVPGTLSADITQSVARIEGERTFQGKSWRLSYSKRFDNADADITFAGYRFSERNYMTMEQYLNARYRNDYSSREKEMYTVTLNKNVADWNTSFNLQYSRQTYWDIRKTDYYTVSVNRYFNVFGLQGVAVGLSASRSKYLGRDNDSAYLRISVPLGTGTASYSGSMSNDRYVNMAGYTDTFNDGLDSYSLNAGLNSGGGLTSQRQINAYYSHRSPLANLSANIASLQKGYTSFGVSASGGATITGKGALVPR | soluble |
| MESHENPGMFSRLLRLFHRENGDQGETRPRQKEFGILSYEKGRMKSFWGRHVSAGKTSSQSCNITNHMKNMNKLEDMKFYIRKINAEREELFRILDIDMNTDLNYSIRHTHLLKKCNQLKKKVRMLLNENRKLLVEQADQEASFGEEKSSVMRPARTYIPSAKQQQV | not soluble |
| MLLKTKHFGEINIDESKIIEFKDGIPGFENLKRYVVLYDGDKNSPFRWLQNVDDGELAFAVVNPFMVVKDYDFEIPDEAVESLGIESILDVMVLSIVVVPEDISKMTMNLKAPVIINTKNNKGMQVVLDTDRYSVRHYIIEELRRQEVNVGAGSDEKEK | soluble |
| MTQKEISIIHPRPSSIVAALYTLRDLNVDVAILHGPPGCSFKHARLLEEDGIHVVTTGLDENGFVFGGHDKLVQVINKSIELFNPKILGVVGTCASMIIGEEMHEAVLEANPDIPVIEVEVHAGYHNNTKGVIFALESALDAGIIDHKEFERQEYLEHHHHHH | not soluble |
| MGSDKIHHHHHHMKTLSIVWAVVGLMLIGGCDQTPQAQSTQSKSMANVVGTTSANQDDLAFTPIVPGYKFEFPRDHLAHNNFRQEWWYLTANLTTETGEQLGAQWTQFRVALKPTDLQTIAPQVTDATPKSESTWATQQLYLAHSALTSSNAHLAHEKWSRRHSEFAEVKLDPYQIRLDNWHWQSETNALFPATLTVENPDFSYQLKLNSQAPLQYQGANGYSLKSRDGQVASYYYSQPFIEISGEINRNGKMERVTGQGWLDREWSSQFLTKTQQGWDWFALRLNDGSTLMLFQLRDQSPAESAKNAPISAFYSARRMFADGTGRNINSTDNPNDIQMTPLQWQHTVNGDYPVSWQVKIPSENIDITITPLNPNSAMPLSTPYWEGPVQLSGSHTGTGYMELTGY | not soluble |
| MSLDDHTRDPTVKAPDGNPSGWRTDGQWEHETLRRAVVHGVRLYNSGEFHESHDCFEDEWYNYGRGNTESKFLHGMVQVAAGAYKHFDFEDDDGMRSLFRTSLQYFRGVPNDYYGVDLLDVRTTVTNALSDPSALHGWQIRLDGEYPTCRPEDIEFAESLEHEGHHHHHH | soluble |
| MSLNYVAEIDLLAEELAQELEIEGGETYGILAAHLRSLYGIHITRTEAAGGLIRHFDPAGKTLALSSYMAAPTRCFQLALQIAQLHAGATVDRVLAGAGFRNAEAAEICRIGLHNYFAAALILPYGQFHRAAQELRHDLELLAVRFGASLEQVAHRLSTLQRPGMKGVPIFFAKIDRAGNITKRHSATRLQFARFGAACPLWNIHQAFESSDRIVRQLAETPDGVRYLSIATQIEKAGAGFNTERPRYAIALGCEISHAQNFVYADTLDLGNAASFKPIGISCRVCERVDCVQRAVPPLKRKLHFDHLSRGALPYQIAEGHHHHHH | not soluble |
